Test results: paper PMC2912355 (Molecular Biology of the Cell, 2010)

B1: IFT70/CrDYF-1 (natural protein, C. reinhardtii (endogenous in flagella), UniProt A8ITN7 1-647, looked up)
chain: MAFFQQPARPIAEGQYTQTIYTLIKEQKFAEAIQHLQYQLQNVPESRAALSLLGYCYYYTGQYDMASQMYEQLVTLYPSNEDYKLYYAQSLYKGGMYPEASKAVVKVEGHQKAVTTLLVACSYEQDDLTGCRRQLDKCAPEDPDTMVNTGCIMFKEGKFEAARQKFNDAVQALGYQPELLYNIALCYYKTKQFGPALKHLAEIIEKAVREHPELSVGSNTDGMEVRSVGNSQTLKETALIEAFNLKAAIEYTMKNVEAAKEALTDMPPRAEEELDPVTLHNSALINMDSDPTGGFKKLNFLLQSPPFPPETFANLLLLYCKPSHGFYDLAADVLAENPQYAGKLLSPDLYDYLQAAIGRYKSPEEAFRRFDELATRHVEQLRRLTKQIQDARIARDNDAIKRAINEYDEALEAYIPGLMAMASIYWDMELYSNVEKIFRQSAEFCSEHEVWKLNVAHTFFMQDNHYKEAIRYYEPVVKKNADNLLGVTAIVLANLCVSYIMTSQNEEAEELMRKVEKEEERSSMQDPDKPCFHLCIINLVIGTLYCAKGNYEFGVSRIIKSLEPYDKKLETDTWYYAKRCFLALIENLAKHMIVLKDSSFTEIMAFLNEAEKHGKDIRVVFNEGKHQSRTIASEARMLKKMFLKLRD

Assays:
[1] = target: Strep-II-Tag IFT46 (C. reinhardtii) (UniProt A2T2X4); test: pull-down
Chain of Strep-II-Tag IFT46 (C. reinhardtii) (A2T2X4 whole entry): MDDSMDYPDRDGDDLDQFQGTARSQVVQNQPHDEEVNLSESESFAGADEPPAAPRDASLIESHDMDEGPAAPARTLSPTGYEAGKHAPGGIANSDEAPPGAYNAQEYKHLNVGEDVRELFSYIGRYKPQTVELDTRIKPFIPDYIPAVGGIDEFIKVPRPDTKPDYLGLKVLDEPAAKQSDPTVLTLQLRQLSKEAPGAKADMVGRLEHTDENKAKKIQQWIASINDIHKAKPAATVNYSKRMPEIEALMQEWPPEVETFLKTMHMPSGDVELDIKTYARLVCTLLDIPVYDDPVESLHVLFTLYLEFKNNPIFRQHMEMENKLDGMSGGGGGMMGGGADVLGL

IFT57 = target: T1, IFT57 (C. reinhardtii (endogenous in flagella), UniProt Q2XQY7 1-469); test: co-sedimentation
T1 sequence (looked up): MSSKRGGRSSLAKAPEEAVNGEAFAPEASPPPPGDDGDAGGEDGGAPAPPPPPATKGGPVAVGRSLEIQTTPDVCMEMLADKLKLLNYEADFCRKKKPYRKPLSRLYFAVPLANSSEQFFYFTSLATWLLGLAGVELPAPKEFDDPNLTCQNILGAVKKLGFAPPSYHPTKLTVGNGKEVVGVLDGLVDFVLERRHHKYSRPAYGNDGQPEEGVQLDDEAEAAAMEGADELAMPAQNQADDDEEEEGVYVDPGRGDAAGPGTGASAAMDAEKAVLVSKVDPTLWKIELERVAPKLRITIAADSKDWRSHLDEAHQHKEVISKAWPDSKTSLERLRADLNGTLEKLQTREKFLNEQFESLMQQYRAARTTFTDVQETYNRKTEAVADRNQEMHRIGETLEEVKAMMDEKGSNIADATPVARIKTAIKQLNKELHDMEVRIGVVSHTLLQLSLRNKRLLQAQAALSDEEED

IFT72 = target: T2, IFT72 (C. reinhardtii (endogenous in flagella), UniProt Q6RCE1 1-641); test: co-sedimentation
T2 sequence (looked up): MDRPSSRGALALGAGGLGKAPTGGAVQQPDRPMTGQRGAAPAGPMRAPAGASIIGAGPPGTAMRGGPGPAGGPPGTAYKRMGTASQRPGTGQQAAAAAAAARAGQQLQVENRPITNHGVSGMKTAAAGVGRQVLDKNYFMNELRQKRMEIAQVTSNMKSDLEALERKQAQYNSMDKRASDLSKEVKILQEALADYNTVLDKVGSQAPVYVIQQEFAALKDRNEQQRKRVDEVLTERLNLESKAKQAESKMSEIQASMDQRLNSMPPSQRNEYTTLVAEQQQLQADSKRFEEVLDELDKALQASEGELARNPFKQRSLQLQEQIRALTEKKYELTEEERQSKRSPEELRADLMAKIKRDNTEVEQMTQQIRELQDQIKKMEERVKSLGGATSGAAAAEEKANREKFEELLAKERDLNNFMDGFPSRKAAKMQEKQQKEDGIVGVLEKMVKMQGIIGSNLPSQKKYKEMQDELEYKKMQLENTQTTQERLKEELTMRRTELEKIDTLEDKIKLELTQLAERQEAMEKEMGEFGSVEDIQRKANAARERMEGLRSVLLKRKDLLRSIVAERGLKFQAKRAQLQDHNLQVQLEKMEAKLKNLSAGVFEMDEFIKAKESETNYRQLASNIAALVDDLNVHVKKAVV

Row | Molecule | stoichiometry N [1] | stoichiometry N (IFT57) | stoichiometry N (IFT72)
1 | MBP-IFT70/CrDYF-1 (natural protein) | 1 |  | 
2 | B1 |  | ~1 | ~1
